Target: Human E1 (ubiquitin-activating enzyme) (UniProt P22314)
Chain of UniProt P22314 (P22314 whole entry): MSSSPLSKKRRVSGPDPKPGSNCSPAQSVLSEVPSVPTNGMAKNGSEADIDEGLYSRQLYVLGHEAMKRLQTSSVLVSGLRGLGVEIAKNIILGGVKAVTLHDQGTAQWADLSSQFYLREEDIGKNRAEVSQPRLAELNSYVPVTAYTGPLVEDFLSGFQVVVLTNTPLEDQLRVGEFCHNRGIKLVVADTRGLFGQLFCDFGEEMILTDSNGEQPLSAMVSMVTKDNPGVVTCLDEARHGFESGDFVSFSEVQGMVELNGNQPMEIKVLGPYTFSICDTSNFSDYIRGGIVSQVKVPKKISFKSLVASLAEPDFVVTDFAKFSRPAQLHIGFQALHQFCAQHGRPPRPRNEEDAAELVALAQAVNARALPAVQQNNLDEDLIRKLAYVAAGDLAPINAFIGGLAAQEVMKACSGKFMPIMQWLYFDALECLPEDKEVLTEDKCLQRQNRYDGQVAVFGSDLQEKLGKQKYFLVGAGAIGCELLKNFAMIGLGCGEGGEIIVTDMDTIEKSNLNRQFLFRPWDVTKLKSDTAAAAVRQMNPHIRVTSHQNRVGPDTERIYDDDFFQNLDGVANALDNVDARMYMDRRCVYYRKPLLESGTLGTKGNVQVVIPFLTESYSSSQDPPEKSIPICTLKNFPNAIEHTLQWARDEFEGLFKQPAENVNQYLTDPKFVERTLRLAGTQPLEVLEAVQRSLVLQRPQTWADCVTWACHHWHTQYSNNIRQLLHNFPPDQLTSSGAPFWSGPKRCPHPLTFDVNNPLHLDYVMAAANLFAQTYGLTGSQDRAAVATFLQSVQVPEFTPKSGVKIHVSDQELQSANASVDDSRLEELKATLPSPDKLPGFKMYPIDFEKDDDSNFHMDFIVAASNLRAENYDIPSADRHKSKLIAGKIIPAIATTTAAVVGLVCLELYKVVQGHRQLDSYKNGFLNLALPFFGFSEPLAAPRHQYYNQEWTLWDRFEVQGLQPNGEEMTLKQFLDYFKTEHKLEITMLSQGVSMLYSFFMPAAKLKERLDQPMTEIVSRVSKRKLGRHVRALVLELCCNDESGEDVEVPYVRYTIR

## FLJ11011v2
  ubiquitinylation reaction, anti-Ub western blot: FLJ11011v2 is efficiently ubiquitinylated in this assay
